29 sequences from the supplement of paper PMC10567573 can be followed below.

± gives the standard deviation.

The data set in a line: protein stability index of a GFP-peptide fusion (GPS, HEK-293T) (PSI 1-6); higher = more stable. The note with it: c terminus: a fixed tail appended.
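Also: 24-mer peptide tiles fused after GFP, lentivirally expressed, FACS-sorted into six equal bins by GFP/DsRed ratio, decoded by Illumina sequencing, PSI is the read-weighted mean bin number.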

As for MSSQVVGIEPLYIKAEPASPDSPK [ESRRA], the protein stability index is, setting by setting: (treatment: DMSO) 4.86 ± 0.12; (treatment: MLN4924 1 uM, 8 h) 4.89 ± 0.095.

Turning to MSTNTVGLGLPMSRSQNTDMVQKS [CLINT1], the protein stability index (treatment: DMSO) was 4.59 ± 0.13 and the protein stability index (treatment: MLN4924 1 uM, 8 h) stood at 4.7 ± 0.28.

Take MTESLEASEFLEQSMSQTRELLLD [RSPH3]: the protein stability index reads like this: (treatment: DMSO) 4.9 ± 0.12; (treatment: MLN4924 1 uM, 8 h) 4.98 ± 0.32.

As to MTPQLFINYKLKSVAHLPWRMLTY [CLPTM1], the protein stability index stood at 2.57 ± 0.71 (treatment: DMSO) and 2.45 ± 0.56 (treatment: MLN4924 1 uM, 8 h).

Consider MVVKTFMDMDQDSEEEKELYLNLA [PDS5B], for which the protein stability index came out at 2.79 ± 0.22 (treatment: DMSO) and 3 ± 0.23 (treatment: MLN4924 1 uM, 8 h).

Take NALVTKLLLDCGAEVNAVDNEGNS [FEM1B]: the protein stability index by setting is: (treatment: DMSO) 3.64 ± 0.19; (treatment: MLN4924 1 uM, 8 h) 3.72 ± 0.17.

Consider NASHKLEVRLVPVSFEDPEFKSSF [ATE1], for which the protein stability index amounted to 2.65 ± 0.25 (treatment: DMSO) and 3.18 ± 0.19 (treatment: MLN4924 1 uM, 8 h).

Turning to NCHIGGSFSEETEKKFEHFSGLLN [LOXL2], the protein stability index is, setting by setting: (treatment: DMSO) 3.02 ± 0.27; (treatment: MLN4924 1 uM, 8 h) 3.44 ± 0.32.

As to NEEIQSFIYSLKQMLLNVEANSAK [FSD1], the protein stability index runs as follows: (treatment: DMSO) 2.99 ± 0.73; (treatment: MLN4924 1 uM, 8 h) 2.72 ± 0.38.

As to NEWRRPIIQFVESGDDKNSNYFSM [TRIM29], the protein stability index reads like this: (treatment: DMSO) 3 ± 0.3; (treatment: MLN4924 1 uM, 8 h) 3.12 ± 0.34.

For NFAVQHRYLFEEDNLLRSTQKLSH [MATN2], the protein stability index came out at 2.97 ± 0.24 (treatment: DMSO) and 2.85 ± 0.27 (treatment: MLN4924 1 uM, 8 h).

As to NFDSIYICPSTFACAQLATGAACR [HDAC6], the protein stability index is 2.24 ± 0.21 (treatment: DMSO) and 2.16 ± 0.26 (treatment: MLN4924 1 uM, 8 h).

Turning to NGATDDSKTNLIVNYLPQNMTQDE [ELAVL3], the protein stability index is, setting by setting: (treatment: DMSO) 5.08 ± 0.29; (treatment: MLN4924 1 uM, 8 h) 5.21 ± 0.041.

As for NGNEEDNHLPPQTKRSSRNPVFQD [FAM104A], the protein stability index by setting is: (treatment: DMSO) 5.16 ± 0.29; (treatment: MLN4924 1 uM, 8 h) 5.26 ± 0.2.

With NGNSYICKCSEGFVLAEDGRRCKK [MATN2], the protein stability index runs as follows: (treatment: DMSO) 3.75 ± 0.28; (treatment: MLN4924 1 uM, 8 h) 4.1 ± 0.19.

Consider NICELAARMLFSAVEWARNIPFFP [NR2F2], for which the protein stability index (treatment: DMSO) amounted to 3.61 ± 0.17 and the protein stability index (treatment: MLN4924 1 uM, 8 h) came out at 3.23 ± 0.06.

For NKIKVMHKQLLLFHNAVSAYFAGN [ARFIP2], the protein stability index came out at 2.55 ± 0.64 (treatment: DMSO) and 2.34 ± 0.24 (treatment: MLN4924 1 uM, 8 h).

NLARQWNNCAFLESSAKSKINVNE [RAP1B]: the protein stability index by setting is: (treatment: DMSO) 2.93 ± 0.33; (treatment: MLN4924 1 uM, 8 h) 2.75 ± 0.19.

Regarding NLGPKSKVLILRNHGLVSVGESVE [ADD1], the protein stability index worked out at 2.69 ± 0.23 (treatment: DMSO) and 3.05 ± 0.38 (treatment: MLN4924 1 uM, 8 h).

Turning to NLGVENMNHYKKTTLEIHNTEERQ [PTPN9], the protein stability index reads like this: (treatment: DMSO) 4.4 ± 0.2; (treatment: MLN4924 1 uM, 8 h) 4.8 ± 0.28.

With NLHSLALDFCDFTAEMARVLTDSN [FBXO33], the protein stability index reads like this: (treatment: DMSO) 1.84 ± 0.25; (treatment: MLN4924 1 uM, 8 h) 2.49 ± 0.61.

With NLNEDDTFLVFSKAELGALPHDFI, the protein stability index reads like this: (treatment: DMSO) 2.82 ± 0.2; (treatment: MLN4924 1 uM, 8 h) 2.87 ± 0.16.

Consider NLYSWDDFMELGRSIPDTQLEQVI [ACSBG2], for which the protein stability index (treatment: DMSO) worked out at 3.25 ± 0.25 and the protein stability index (treatment: MLN4924 1 uM, 8 h) came to 3.38 ± 0.31.

With NNVVDISVPPTTDGQKPNKLQCCQ [RAB11B], the protein stability index is, setting by setting: (treatment: DMSO) 4.72 ± 0.26; (treatment: MLN4924 1 uM, 8 h) 4.58 ± 0.12.

For NRKVSQRRVDFCKDPSAIGKKQVP [CASP6], the protein stability index runs as follows: (treatment: DMSO) 4.04 ± 0.16; (treatment: MLN4924 1 uM, 8 h) 4.26 ± 0.22.

NRLLQEENRTLQVLRAEHRGFQEE [CBY2]: the protein stability index is, setting by setting: (treatment: DMSO) 4.43 ± 0.21; (treatment: MLN4924 1 uM, 8 h) 4.46 ± 0.12.

Regarding NRVFSLQDLCCRAIVSCTPVHLID [RAB40C], the protein stability index runs as follows: (treatment: DMSO) 2.53 ± 0.26; (treatment: MLN4924 1 uM, 8 h) 2.35 ± 0.27.

Turning to NTLAPTCFKAKLHRKRGSQPPDMA [RSPH3], the protein stability index worked out at 3.83 ± 0.12 (treatment: DMSO) and 3.87 ± 0.25 (treatment: MLN4924 1 uM, 8 h).

With NVGEISVSTRLTVLREDQIPRGFP [PTPRD], the protein stability index runs as follows: (treatment: DMSO) 3.31 ± 0.54; (treatment: MLN4924 1 uM, 8 h) 3.44 ± 0.44.
